# T1: IVT-Nrf2;IVT-JDP2 (;mouse, UniProt Q60795;P97875 1-597;1-163, |)
# T1 sequence 1: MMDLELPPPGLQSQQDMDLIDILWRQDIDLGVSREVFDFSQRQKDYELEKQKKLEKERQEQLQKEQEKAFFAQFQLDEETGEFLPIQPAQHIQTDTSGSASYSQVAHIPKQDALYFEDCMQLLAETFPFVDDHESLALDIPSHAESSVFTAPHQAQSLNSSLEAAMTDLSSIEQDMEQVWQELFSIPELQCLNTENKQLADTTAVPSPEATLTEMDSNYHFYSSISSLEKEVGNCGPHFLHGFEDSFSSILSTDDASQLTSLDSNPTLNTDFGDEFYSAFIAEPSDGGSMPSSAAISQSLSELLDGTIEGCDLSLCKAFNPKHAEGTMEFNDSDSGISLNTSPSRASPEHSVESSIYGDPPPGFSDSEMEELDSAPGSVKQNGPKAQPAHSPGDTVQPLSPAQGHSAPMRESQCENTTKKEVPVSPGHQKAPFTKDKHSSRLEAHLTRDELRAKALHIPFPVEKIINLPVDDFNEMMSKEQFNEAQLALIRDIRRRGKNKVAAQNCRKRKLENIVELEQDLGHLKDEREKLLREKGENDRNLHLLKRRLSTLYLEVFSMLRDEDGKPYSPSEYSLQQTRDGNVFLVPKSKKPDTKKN
# T1 sequence 2: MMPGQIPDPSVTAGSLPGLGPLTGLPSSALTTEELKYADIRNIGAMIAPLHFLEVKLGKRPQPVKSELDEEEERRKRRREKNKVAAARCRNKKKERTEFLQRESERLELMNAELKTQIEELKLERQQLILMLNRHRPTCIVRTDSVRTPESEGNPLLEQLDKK
# B1: human NQO1-ARE WT (dsDNA)
# DNA 1: CAGTCACAGTGACTCAGCAGAATCT
# DNA 2: AGATTCTGCTGAGTCACTGTGACTG
# Assays:
# IVT-Nrf2;IVT-JDP2 = biological target: T1, IVT-Nrf2;IVT-JDP2; assay: EMSA; EMSA: 5 ug GST fusion or 10 ng IVT protein, 25 C 30 min; 5% native PAGE in 0.5x TBE at 4 C; binding buffer, salt and pH not given; conditions: protein: ivt;ivt; tags: ;; copies: 1;1; label: 32P 5' end (T4 kinase) as probe; blunt
# [1] = biological target: IVT-Nrf2;IVT-JDP2;IVT-MafK (;mouse;rat, UniProt Q60795;P97875;Q8K4B3 1-597;1-163;1-156, ||); assay: EMSA; large complex with higher DNA-binding activity; EMSA: 5 ug GST fusion or 10 ng IVT protein, 25 C 30 min; 5% native PAGE in 0.5x TBE at 4 C; binding buffer, salt and pH not given; conditions: tags: ;;, label: 32P 5' end (T4 kinase) as probe, blunt
binder,measurement,setting,value
B1,binding result,IVT-Nrf2;IVT-JDP2,binds
same,binding result,[1],binds

# From publication PMC3847324, “Jun dimerization protein 2 is a critical component of the Nrf2/MafK complex regulating the response to ROS homeostasis”
